The experiment addresses α1-subunit of steroid C-25 dehydrogenase 1 (S25DH1), recombinant from Thauera aromatica K172 (Sterolibacterium denitrificans). Put plainly: co-purification (ion exchange and dye-affinity chromatography, SDS-PAGE); nontagged subunits coproduced in T. aromatica K172; soluble extract, anaerobic DEAE-Sepharose then Reactive Red 120, active fractions followed; SDS-PAGE, bands of S25DH1 identified by ESI-QTOF-MS of tryptic digests.

α1-subunit of steroid C-25 dehydrogenase 1 (S25DH1), recombinant from Thauera aromatica K172 (Sterolibacterium denitrificans), sequence (main, as listed by the source): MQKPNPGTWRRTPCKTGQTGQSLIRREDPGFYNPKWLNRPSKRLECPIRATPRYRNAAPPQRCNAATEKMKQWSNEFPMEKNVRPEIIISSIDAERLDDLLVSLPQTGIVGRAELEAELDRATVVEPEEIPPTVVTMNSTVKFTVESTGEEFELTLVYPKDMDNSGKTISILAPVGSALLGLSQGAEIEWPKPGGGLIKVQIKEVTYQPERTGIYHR

The term stoichiometry N denotes a count of units in the complex or per binding partner. For the substance “β3-subunit of steroid C-25 dehydrogenase, recombinant from Thauera aromatica K172 (natural protein)”, the stoichiometry N is 1 β3 per α1.

“γ3-subunit of steroid C-25 dehydrogenase, recombinant from Thauera aromatica K172 (natural protein)”: the stoichiometry N was 1 γ3 per α1.

The record behind these values is article PMC6016249.
